B1: Hairpin Ribozyme (parent)
chain: GUCCUCUUUCACGUGCGCGUGAAAGAGAGAAGUGAACCAGAGAAACACACGUUGUGGUAUAUUACCUGGUA

Variants of: B1
Test: self-cleavage, relative activity (ratio to wild type); higher = more cleavage; co-transcriptional

Question: With GUCCUCUUUCACGUGCGCGUGAAAGAGAGAAGCGAACCAGAGAAACACACGUCGUGGUAUAUUACCUGGUA [U33C U53C] as the variant, how does the self-cleavage read?
Answer: Its self-cleavage is 0.154.

Question: For GUCCUCUUUCACGUGCGCGUGAAAGAGAGAAGGGAACCAGAGAAAAACACGUUGUGGUAUAUUACCUGGUA [U33G C46A], which self-cleavage is on record?
Answer: The self-cleavage was 0.0768.

Question: With GUCCUCUUUCACGUGCGCGUGAAAGAGAGAAGGGAACCAGAGAAAUACACGUUGUGGUAUAUUACCUGGUA [U33G C46U] as the variant, how does the self-cleavage read?
Answer: The self-cleavage was 0.16.

Question: For GUCCUCUUUCACGUGCGCGUGAAAGAGAGAAGCGAACCAGAGAAACACACGUUGUGGUAUAUUACCUGUUA [U33C G69U], which self-cleavage is on record?
Answer: Its self-cleavage is 0.0808.

Question: For GUCCUCUUUCACGUGCGCGUGAAAGAGAGAAGCGAACCAGAGAAACACAAGUUGUGGUAUAUUACCUGGUA [U33C C50A], which self-cleavage is on record?
Answer: Its self-cleavage is 0.114.

Question: Which self-cleavage does the source give for GUCCUCUUUCACGUGCGCGUGAAAGAGAGAAGGCAACCAGAGAAACACACGUUGUGGUAUAUUACCUGGUA [U33G G34C] here?
Answer: Its self-cleavage is 0.337.

Question: With GUCCUCUUUCACGUGCGCGUGAAAGAGAGAAGCGUACCAGAGAAACACACGUUGUGGUAUAUUACCUGGUA [U33C A35U] as the variant, how does the self-cleavage read?
Answer: Its self-cleavage is 0.162.

Question: Which self-cleavage does the source give for GUCCUCUUUCACGUGCGCGUGAAAGAGAGAAGCGAACCAGAGAAACACGCGUUGUGGUAUAUUACCUGGUA [U33C A49G] here?
Answer: Its self-cleavage is 0.123.

Question: With GUCCUCUUUCACGUGCGCGUGAAAGAGAGAAGCGAACCAGAGAAACACACGUUGUGGUAUAUUACCUGGGA [U33C U70G] as the variant, how does the self-cleavage read?
Answer: The self-cleavage was 0.147.

Question: With GUCCUCUUUCACGUGCGCGUGAAAGAGAGAAGCGAACCAGAGAAACACACGUUGUGGUAUAUUACCUGGCA [U33C U70C] as the variant, how does the self-cleavage read?
Answer: Its self-cleavage is 0.0962.

Question: With GUCCUCUUUCACGUGCGCGUGAAAGAGAGAAGCGAACCAGAGAAACAUACGUUGUGGUAUAUUACCUGGUA [U33C C48U] as the variant, how does the self-cleavage read?
Answer: Its self-cleavage is 0.118.

Question: With GUCCUCUUUCACGUGCGCGUGAAAGAGAGAAGGGAACCAGAGAAACACAGGUUGUGGUAUAUUACCUGGUA [U33G C50G] as the variant, how does the self-cleavage read?
Answer: The self-cleavage was 0.12.

Question: Which self-cleavage does the source give for GUCCUCUUUCACGUGCGCGUGAAAGAGAGAAGCGAACUAGAGAAACACACGUUGUGGUAUAUUACCUGGUA [U33C C38U] here?
Answer: Its self-cleavage is 0.0575.

Question: For GUCCUCUUUCACGUGCGCGUGAAAGAGAGAAGAGAACCAGAGAAACACACGUUGUGGUAUAUUACCUGGAA [U33A U70A], which self-cleavage is on record?
Answer: The self-cleavage was 0.0761.

Question: For GUCCUCUUUCACGUGCGCGUGAAAGAGAGAAGCGAACCAGAGAGACACACGUUGUGGUAUAUUACCUGGUA [U33C A44G], which self-cleavage is on record?
Answer: Its self-cleavage is 0.0547.

Question: With GUCCUCUUUCACGUGCGCGUGAAAGAGAGAAGCGAACCAGAGAUACACACGUUGUGGUAUAUUACCUGGUA [U33C A44U] as the variant, how does the self-cleavage read?
Answer: Its self-cleavage is 0.195.

Question: With GUCCUCUUUCACGUGCGCGUGAAAGAGAGAAGCGAACCAGAGAAACACACGUUGUGUUAUAUUACCUGGUA [U33C G57U] as the variant, how does the self-cleavage read?
Answer: Its self-cleavage is 0.19.

Question: For GUCCUCUUUCACGUGCGCGUGAAAGAGAGAAGGGAACCAGACAAACACACGUUGUGGUAUAUUACCUGGUA [U33G G42C], which self-cleavage is on record?
Answer: The self-cleavage was 0.166.

Question: With GUCCUCUUUCACGUGCGCGUGAAAGAGAGAAGGGAACCAGAGAAACACACGUUGUGGUAUGUUACCUGGUA [U33G A61G] as the variant, how does the self-cleavage read?
Answer: Its self-cleavage is 0.229.

Question: With GUCCUCUUUCACGUGCGCGUGAAAGAGAGAAGGGAACCAGAGAAACACACGUUGUGGUAUUUUACCUGGUA [U33G A61U] as the variant, how does the self-cleavage read?
Answer: The self-cleavage was 0.0863.

Question: With GUCCUCUUUCACGUGCGCGUGAAAGAGAGAAGGGAACCAGAGAAACAGACGUUGUGGUAUAUUACCUGGUA [U33G C48G] as the variant, how does the self-cleavage read?
Answer: The self-cleavage was 0.209.

Question: For GUCCUCUUUCACGUGCGCGUGAAAGAGAGAAGGGAACCAGAGAAACAUACGUUGUGGUAUAUUACCUGGUA [U33G C48U], which self-cleavage is on record?
Answer: The self-cleavage was 0.112.

Question: For GUCCUCUUUCACGUGCGCGUGAAAGAGAGAAGGGAACCAGAGAAACACACCUUGUGGUAUAUUACCUGGUA [U33G G51C], which self-cleavage is on record?
Answer: Its self-cleavage is 0.202.

Question: With GUCCUCUUUCACGUGCGCGUGAAAGAGAGAAGGGAACCAGAGAAACACACUUUGUGGUAUAUUACCUGGUA [U33G G51U] as the variant, how does the self-cleavage read?
Answer: The self-cleavage was 0.252.

Question: Which self-cleavage does the source give for GUCCUCUUUCACGUGCGCGUGAAAGAGAGAAGGGAACCAGAGAAACACACGUUCUGGUAUAUUACCUGGUA [U33G G54C] here?
Answer: Its self-cleavage is 0.145.

Question: With GUCCUCUUUCACGUGCGCGUGAAAGAGAGAAGGGAACCAGAGAAACACACGUUAUGGUAUAUUACCUGGUA [U33G G54A] as the variant, how does the self-cleavage read?
Answer: Its self-cleavage is 0.111.

Question: With GUCCUCUUUCACGUGCGCGUGAAAGAGAGAAGGGAACCAGAGAAACACACGUUUUGGUAUAUUACCUGGUA [U33G G54U] as the variant, how does the self-cleavage read?
Answer: The self-cleavage was 0.0691.

Question: For GUCCUCUUUCACGUGCGCGUGAAAGAGAGAAGGGAACCAGAGGAACACACGUUGUGGUAUAUUACCUGGUA [U33G A43G], which self-cleavage is on record?
Answer: The self-cleavage was 0.282.

Question: For GUCCUCUUUCACGUGCGCGUGAAAGAGAGAAGGGAACCAGAGAAACACACGUUGUGCUAUAUUACCUGGUA [U33G G57C], which self-cleavage is on record?
Answer: Its self-cleavage is 0.108.

Question: Which self-cleavage does the source give for GUCCUCUUUCACGUGCGCGUGAAAGAGAGAAGGGAACCAGAGAAACACACGUUGUGAUAUAUUACCUGGUA [U33G G57A] here?
Answer: The self-cleavage was 0.115.

Question: For GUCCUCUUUCACGUGCGCGUGAAAGAGAGAAGCGAACCAGAGAAACGCACGUUGUGGUAUAUUACCUGGUA [U33C A47G], which self-cleavage is on record?
Answer: The self-cleavage was 0.219.

Question: With GUCCUCUUUCACGUGCGCGUGAAAGAGAGAAGCGAACCAGAGAAGCACACGUUGUGGUAUAUUACCUGGUA [U33C A45G] as the variant, how does the self-cleavage read?
Answer: The self-cleavage was 0.227.

Question: Which self-cleavage does the source give for GUCCUCUUUCACGUGCGCGUGAAAGAGAGAAGCGAACCGGAGAAACACACGUUGUGGUAUAUUACCUGGUA [U33C A39G] here?
Answer: Its self-cleavage is 0.134.

Question: With GUCCUCUUUCACGUGCGCGUGAAAGAGAGAAGCGAACCAGAGAAACACACGUUGUGGCAUAUUACCUGGUA [U33C U58C] as the variant, how does the self-cleavage read?
Answer: Its self-cleavage is 0.169.

Question: For GUCCUCUUUCACGUGCGCGUGAAAGAGAGAAGGGAACCAGAGAAACACACGUUGUGGUAUAUUACCUGGUA [U33G], which self-cleavage is on record?
Answer: Its self-cleavage is 0.127.

Question: Which self-cleavage does the source give for GUCCUCUUUCACGUGCGCGUGAAAGAGAGAAGCGAACCAGAGAAACACACGUUGUGGUAUAUUACCUGGUA [U33C] here?
Answer: Its self-cleavage is 0.161.

Question: Which self-cleavage does the source give for GUCCUCUUUCACGUGCGCGUGAAAGAGAGAAGCGAAUCAGAGAAACACACGUUGUGGUAUAUUACCUGGUA [U33C C37U] here?
Answer: Its self-cleavage is 0.0997.

Question: For GUCCUCUUUCACGUGCGCGUGAAAGAGAGAAGCGAAACAGAGAAACACACGUUGUGGUAUAUUACCUGGUA [U33C C37A], which self-cleavage is on record?
Answer: The self-cleavage was 0.182.

From the RNAGym collection of RNA variant scans (doi:10.7554/elife.80360)
